Target: T1, integrin α4β7 expressed on transduced human CD4+ T cells (human, UniProt P13612 34-1032; P26010 20-798)
T1 construct: whole, on cells; Endogenous integrin on sorted human CD4+ cells transduced with the GFP or IL-10-GFP retroviral vector; The cells were CFDSE-labelled in the adhesion assay; also called αA4β7; gut-homing molecule α4β7
Assay: cell adhesion assay with blocking mAbs
Method: Adhesion of sorted CD4⁺ cells, transduced with GFP (1 donor) or IL-10-GFP (2 donors), to MAdCAM-1 transfected 293T cells was determined after preincubation with or without the following mAbs: 145 2C11 (control), act-1 (αA4β7) or MECA-367 (αMAdCAM-1). Fluorescent-labelled CD4⁺ cells were added to a 96 well plate that contained confluent MAdCAM-1 transfected 293T cells or control 293T cells. Relative binding inhibition was referred to the maximum binding achieved in the absence of mAbs (as described in Materials and Methods).
We investigated whether transduced CD4⁺ cells were able to bind to the mucosal addressin MAdCAM-1 measuring their adhesion to 293T cells stably expressing the murine MAdCAM cDNA (kindly provided by Dr. S. Fong, Genentech Inc., San Fransisco, Calif., USA). […] Fluorescence was measured in a Cytofluor plate reader (Perceptive Biosystems, Frarningham, Mass., USA) before and after washing. The adherence was calculated as the percentage of fluorescent cells remaining after washing. The maximum binding was calculated as the difference in adherence to MAdCAM-1 transfected and control 293T cells.

T1 sequence (P13612 34-1032, chain 1 of 2): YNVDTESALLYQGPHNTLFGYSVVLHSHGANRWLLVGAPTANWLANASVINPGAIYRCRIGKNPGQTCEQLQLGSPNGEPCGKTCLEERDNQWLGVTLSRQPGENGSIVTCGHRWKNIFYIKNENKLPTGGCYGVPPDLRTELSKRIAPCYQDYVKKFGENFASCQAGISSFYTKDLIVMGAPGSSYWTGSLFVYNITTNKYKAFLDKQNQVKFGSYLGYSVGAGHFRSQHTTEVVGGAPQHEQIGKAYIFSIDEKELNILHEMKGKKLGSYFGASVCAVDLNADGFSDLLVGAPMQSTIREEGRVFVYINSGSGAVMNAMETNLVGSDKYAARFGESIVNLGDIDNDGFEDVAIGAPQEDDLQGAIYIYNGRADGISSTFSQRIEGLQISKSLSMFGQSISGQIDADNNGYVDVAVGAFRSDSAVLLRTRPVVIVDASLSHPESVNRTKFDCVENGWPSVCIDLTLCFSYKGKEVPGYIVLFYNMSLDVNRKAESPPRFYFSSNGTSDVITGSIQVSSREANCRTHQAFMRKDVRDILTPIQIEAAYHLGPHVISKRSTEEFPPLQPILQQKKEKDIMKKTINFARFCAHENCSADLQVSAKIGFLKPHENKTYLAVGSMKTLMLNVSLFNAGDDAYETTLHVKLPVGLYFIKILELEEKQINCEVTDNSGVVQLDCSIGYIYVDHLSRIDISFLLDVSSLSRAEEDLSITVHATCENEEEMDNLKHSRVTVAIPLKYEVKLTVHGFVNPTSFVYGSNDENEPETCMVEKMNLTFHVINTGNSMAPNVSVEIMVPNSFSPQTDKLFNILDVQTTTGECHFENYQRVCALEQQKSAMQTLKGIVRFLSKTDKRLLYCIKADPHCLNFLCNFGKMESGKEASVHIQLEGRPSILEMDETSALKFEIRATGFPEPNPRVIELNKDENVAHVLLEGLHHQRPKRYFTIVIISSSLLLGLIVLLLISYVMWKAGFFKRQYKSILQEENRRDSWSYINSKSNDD
T1 sequence (P26010 20-798, chain 2 of 2): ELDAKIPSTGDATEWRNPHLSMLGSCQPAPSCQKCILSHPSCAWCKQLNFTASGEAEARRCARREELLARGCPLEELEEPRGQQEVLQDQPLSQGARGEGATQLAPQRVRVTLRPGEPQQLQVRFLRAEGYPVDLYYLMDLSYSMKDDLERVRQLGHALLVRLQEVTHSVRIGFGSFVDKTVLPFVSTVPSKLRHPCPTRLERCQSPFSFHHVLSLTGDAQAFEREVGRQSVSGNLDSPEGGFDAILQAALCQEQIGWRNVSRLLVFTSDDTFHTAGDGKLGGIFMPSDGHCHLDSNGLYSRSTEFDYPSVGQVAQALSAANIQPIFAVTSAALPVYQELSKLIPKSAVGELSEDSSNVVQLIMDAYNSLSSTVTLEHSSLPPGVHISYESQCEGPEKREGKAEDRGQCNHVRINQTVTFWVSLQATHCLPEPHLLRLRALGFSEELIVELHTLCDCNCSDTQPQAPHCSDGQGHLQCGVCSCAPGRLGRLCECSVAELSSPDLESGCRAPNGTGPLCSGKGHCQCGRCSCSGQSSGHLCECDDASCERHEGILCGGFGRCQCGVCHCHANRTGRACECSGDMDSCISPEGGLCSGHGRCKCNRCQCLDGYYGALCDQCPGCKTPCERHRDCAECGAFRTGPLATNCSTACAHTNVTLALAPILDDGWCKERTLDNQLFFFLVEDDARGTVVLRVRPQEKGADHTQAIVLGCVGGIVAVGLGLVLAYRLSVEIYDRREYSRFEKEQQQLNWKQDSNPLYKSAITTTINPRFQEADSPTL

binding result: binds
B1: murine MAdCAM-1 stably expressed on 293T cells (ligand, UniProt Q61826 22-405, looked up)
chain: QSFQVNPPESEVAVAMGTSLQITCSMSCDEGVARVHWRGLDTSLGSVQTLPGSSILSVRGMLSDTGTPVCVGSCGSRSFQHSVKILVYAFPDQLVVSPEFLVPGQDQVVSCTAHNIWPADPNSLSFALLLGEQRLEGAQALEPEQEEEIQEAEGTPLFRMTQRWRLPSLGTPAPPALHCQVTMQLPKLVLTHRKEIPVLQSQTSPKPPNTTSAEPYILTSSSTAEAVSTGLNITTLPSAPPYPKLSPRTLSSEGPCRPKIHQDLEAGWELLCEASCGPGVTVRWTLAPGDLATYHKREAGAQAWLSVLPPGPMVEGWFQCRQDPGGEVTNLYVPGQVTPNSSSTVVLWIGSLVLGLLALVFLAYRLWKCYRPGPRPDTSSCTHL
notes: whole, on cells; 293T cells stably expressing the murine MAdCAM cDNA (from Dr. S. Fong, Genentech); also called mucosal addressin MAdCAM-1
